Results reported in article PMC10149471, “Assessing the applicability of ^19F labeled tryptophan residues to quantify protein dynamics” (Journal of Biomolecular Nmr, 2023).

T1: Dcp1 from S. pombe, residues 1-127, 15N and 5-fluorotryptophan labeled (S. pombe, UniProt Q9P805 1-127, 5-fluorotryptophan at Trp 45 and 107)
T1 construct: Dcp1, S. pombe, UniProt Q9P805, residues 1-127; the tryptophans are replaced with 5-fluorotryptophan; also called 5-fluorotryptophan labeled Dcp1; source: E. coli BL21(DE3) CodonPlus-RIL with 5-fluoroindole added, purified (Ni-NTA, TEV cleavage, second Ni-NTA, SEC)
T1 sequence (looked up): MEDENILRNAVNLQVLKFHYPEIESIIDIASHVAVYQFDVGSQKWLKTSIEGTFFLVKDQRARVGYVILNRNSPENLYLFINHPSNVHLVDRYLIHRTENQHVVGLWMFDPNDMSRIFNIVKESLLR

T2: Dcp2 from S. pombe, regulatory and catalytic domains, residues 1-243 (S. pombe, UniProt O13828 1-243)
T2 construct: Dcp2, S. pombe, residues 1-243 (NRD 1-95 and catalytic NUDIX domain 96-243); also called Dcp2-NRD-CTD; internal ID 223; source: E. coli BL21(DE3) CodonPlus-RIL, purified (Ni-NTA, TEV cleavage, second Ni-NTA, SEC)
T2 sequence (looked up): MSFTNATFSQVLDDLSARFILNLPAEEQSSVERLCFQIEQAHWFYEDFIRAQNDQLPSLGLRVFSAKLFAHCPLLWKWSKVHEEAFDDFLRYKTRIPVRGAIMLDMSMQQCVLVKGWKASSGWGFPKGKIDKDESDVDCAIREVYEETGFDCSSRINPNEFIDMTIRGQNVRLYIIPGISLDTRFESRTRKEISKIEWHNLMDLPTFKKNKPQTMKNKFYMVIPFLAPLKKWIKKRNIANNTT

T3: Dcp2 from S. pombe, regulatory and catalytic domains, residues 1-243, 5-fluorotryptophan labeled (S. pombe, UniProt O13828 1-243, the seven tryptophan residues are replaced with 5-fluorotryptophan)
T3 construct: Dcp2, S. pombe, residues 1-243 (NRD 1-95 and catalytic NUDIX domain 96-243); also used with isoleucine and methionine methyl 13C labeling; also called 5-fluorotryptophan labeled Dcp2-NRD-CTD; source: E. coli BL21(DE3) CodonPlus-RIL with 5-fluoroindole added, purified (Ni-NTA, TEV cleavage, second Ni-NTA, SEC)
T3 sequence (looked up): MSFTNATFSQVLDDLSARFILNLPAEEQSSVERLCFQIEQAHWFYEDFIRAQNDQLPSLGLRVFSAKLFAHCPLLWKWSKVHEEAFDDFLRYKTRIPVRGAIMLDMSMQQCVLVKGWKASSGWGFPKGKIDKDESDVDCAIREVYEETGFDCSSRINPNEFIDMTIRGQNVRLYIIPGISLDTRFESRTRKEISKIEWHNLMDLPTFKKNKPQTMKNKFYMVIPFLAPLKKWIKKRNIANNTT

B1: Dcp2 from S. pombe, N-terminal regulatory domain, residues 1-95 (domain or fragment, UniProt O13828 1-95, looked up)
chain: MSFTNATFSQVLDDLSARFILNLPAEEQSSVERLCFQIEQAHWFYEDFIRAQNDQLPSLGLRVFSAKLFAHCPLLWKWSKVHEEAFDDFLRYKTR
notes: Dcp2, S. pombe, residues 1-95 (N-terminal regulatory domain); Used unlabeled or 15N labeled, depending on the sample; also called Dcp2 NRD; NRD of Dcp2; source: E. coli BL21(DE3) CodonPlus-RIL, purified (Ni-NTA, TEV cleavage, second Ni-NTA, SEC)
B2: Dcp2 from S. pombe, N-terminal regulatory domain, residues 1-95, 5-fluorotryptophan labeled (domain or fragment, UniProt O13828 1-95, looked up)
chain: MSFTNATFSQVLDDLSARFILNLPAEEQSSVERLCFQIEQAHWFYEDFIRAQNDQLPSLGLRVFSAKLFAHCPLLWKWSKVHEEAFDDFLRYKTR
modifications: 5-fluorotryptophan at the three tryptophan residues (W43 among them)
notes: Dcp2, S. pombe, residues 1-95 (N-terminal regulatory domain); also called 5-fluorotryptophan labeled Dcp2 NRD; source: E. coli BL21(DE3) CodonPlus-RIL with 5-fluoroindole added, purified (Ni-NTA, TEV cleavage, second Ni-NTA, SEC)
B3: Dcp2 from S. pombe, residues 1-95, W43A assignment mutant (domain or fragment, UniProt O13828 1-95, looked up)
chain: MSFTNATFSQVLDDLSARFILNLPAEEQSSVERLCFQIEQAHAFYEDFIRAQNDQLPSLGLRVFSAKLFAHCPLLWKWSKVHEEAFDDFLRYKTR
notes: Dcp2, S. pombe, residues 1-95 with W43A; also called Dcp2 NRD W43A; internal ID 1070; source: E. coli BL21(DE3) CodonPlus-RIL, purified (Ni-NTA, TEV cleavage, second Ni-NTA, SEC)
B4: Dcp1 from S. pombe, residues 1-127 (natural protein, UniProt Q9P805 1-127, looked up)
chain: MEDENILRNAVNLQVLKFHYPEIESIIDIASHVAVYQFDVGSQKWLKTSIEGTFFLVKDQRARVGYVILNRNSPENLYLFINHPSNVHLVDRYLIHRTENQHVVGLWMFDPNDMSRIFNIVKESLLR
notes: Dcp1, S. pombe, UniProt Q9P805, residues 1-127; also called internal ID 48; source: E. coli BL21(DE3) CodonPlus-RIL, purified (Ni-NTA, TEV cleavage, second Ni-NTA, SEC)

Tests used:
Assay in all cases: NMR spectra of a prepared complex; Dcp1 and Dcp2 expressed separately, complex prepared with one partner NMR active; 303 K; 125 mM NaCl, 25 mM HEPES, pH 7.3, 1 mM DTT; 100-500 uM protein
Conditions in all cases: both partners purified
[1] = molecular target: B4
[2] = molecular target: T1, Dcp1 from S. pombe, residues 1-127, 15N …
[3] = molecular target: T2, Dcp2 from S. pombe, regulatory and …
[4] = molecular target: T3, Dcp2 from S. pombe, regulatory and …

| Binder | binding result [1] | binding result [2] | binding result [3] | binding result [4] |
| --- | --- | --- | --- | --- |
| B1 | binds | binds |  |  |
| B2 | binds |  |  |  |
| B3 | binds |  |  |  |
| B4 |  |  | binds | binds |
